Assay results: paper PMC11624207, “Human PC4 supports telomere stability and viability in cells utilizing the alternative lengthening of telomeres mechanism”

Target: PC4wt (His-tagged) (human, UniProt P53999 1-127)
Experiment: EMSA; EMSA: 50 mM HEPES pH 8, 1 mM DTT, 100 mM NaCl, 0.01% BSA, 2% glycerol; 20 min on ice then 10 min at 25 C; native 8% PAGE, 0.5x TBE, 4 C
Conditions: protein: recombinant, tags: N-terminal 6xHis, chain copies: 2, label: 5'-32P, single strand

## TTACGGTTACGGTTACGGTTACGGTTACGG (ssDNA) [mutant telomeric G-rich (TTACGG)5]
Unable to form G4
  binding result: binds

## GGACTCTAGCGTGGATCCTTAAGCTAGAAT (ssDNA) [unrelated oligonucleotide]
  binding result: binds

## CCCTAACCCTAACCCTAACCCTAACCCTAA (ssDNA) [telomeric C-rich (CCCTAA)5]
  binding result: binds

## TTAGGGTTAGGGTTAGGGTTAGGGTTAGGG (ssDNA) [telomeric G-rich (TTAGGG)5]
G4-capable
  binding result: binds
